The text below walks through data of paper PMC11532494 (Nature Communications, 2024).

Several values for one entry are separate records, joined by “and”; a condition that tells them apart may be missing. Identical values can stand only once. No end group written: not given here. *: point of attachment. AMC = Cc1cc(=O)oc2cc(N*)ccc12

The target of this experiment is LpApaH (3) (Legionella pneumophila, UniProt A0A2S6EWV0). In kind it is biochemical.
In the case of “QPKKdec (QPKK-{AMC}; not fully specified (residue 4); printed as QPKKdec; also: decanoyl-lysine (which Lys not given here); UniProt P04637 317-320, looked up, fragment)”, the “[AMC]” value was 154.30 nM and 187.50 nM.
Under “QPKKoct (QPKK-{AMC}; not fully specified (residue 4); printed as QPKKoct; also: octanoyl-lysine (which Lys not given here); UniProt P04637 317-320, looked up, fragment)” stands 53.71 nM and 69.34 nM; under “QPKKmyr (QPKK-{AMC}; not fully specified (residue 4); printed as QPKKmyr; also: myristoyl-lysine (which Lys not given here); UniProt P04637 317-320, looked up, fragment)”, 400.39 nM and 496.09 nM.
